Experimental data reported in patent US20190054182A1.
Like-named read-outs stand apart in the source and are kept apart here.

B1: V1/V2 directed Ab “a” (antibody, V domains shown)
VH: QVHLTQSGPEVRKPGTSVKVSCKAPGNTLKTYDLHWVRSVPGQGLQWMGWISHEGDKKVIVERFKAKVTIDWDRSTNTAYLQLSGLTSGDTAVYYCAKGSKHRLRDYALYDDDGALNWAVDVDYLSNLEFWGQGTAVTVSS
VL: DFVLTQSPHSLSVTPGESASISCKSSHSLIHGDRNNYLAWYVQKPGRSPQLLIYLASSRASGVPDRFSGSGSDKDFTLKISRVETEDVGTYYCMQGRESPWTFGQGTKVDIK
B2: Binding Protein 2 (protein)
light 1: DFVLTQSPHSLSVTPGESASISCKSSHSLIHGDRNNYLAWYVQKPGRSPQLLIYLASSRASGVPDRFSGSGSDKDFTLKISRVETEDVGTYYCMQGRESPWTFGQGTKVDIKDKTHTASELTQDPAVSVALKQTVTITCRGDSLRSHYASWYQKKPGQAPVLLFYGKNNRPSGIPDRFSGSASGNRASLTITGAQAEDEADYYCSSRDKSGSRLSVFGGGTKLTVLDKTHTRTVAAPSVFIFPPSDEQLKSGTASVVCLLNNFYPREAKVQWKVDNALQSGNSQESVTEQDSKDSTYSLSSTLTLSKADYEKHKVYACEVTHQGLSSPVTKSFNRGEC
heavy 1: EVRLVESGGGLVKPGGSLRLSCSASGFDFDNAWMTWVRQPPGKGLEWVGRITGPGEGWSVDYAESVKGRFTISRDNTKNTLYLEMNNVRTEDTGYYFCARTGKYYDFWSGYPPGEEYFQDWGQGTLVIVSSDKTHTQVHLTQSGPEVRKPGTSVKVSCKAPGNTLKTYDLHWVRSVPGQGLQWMGWISHEGDKKVIVERFKAKVTIDWDRSTNTAYLQLSGLTSGDTAVYYCAKGSKHRLRDYALYDDDGALNWAVDVDYLSNLEFWGQGTAVTVSSDKTHTASTKGPSVFPLAPSSKSTSGGTAALGCLVKDYFPEPVTVSWNSGALTSGVHTFPAVLQSSGLYSLSSVVTVPSSSLGTQTYICNVNHKPSNTKVDKKVEPKSCDKTHTCPPCPAPELLGGPSVFLFPPKPKDTLMISRTPEVTCVVVDVSHEDPEVKFNWYVDGVEVHNAKTKPREEQYNSTYRVVSVLTVLHQDWLNGKEYKCKVSNKALPAPIEKTISKAKGQPREPQVYTLPPCRDELTKNQVSLWCLVKGFYPSDIAVEWESNGQPENNYKTTPPVLDSDGSFFLYSKLTVDKSRWQQGNVFSCSVLHEALHSHYTQKSLSLSPG
heavy 2: RAHLVQSGTAMKKPGASVRVSCQTSGYTFTAHILFWFRQAPGRGLEWVGWIKPQYGAVNFGGGFRDRVTLTRDVYREIAYMDIRGLKPDDTAVYYCARDRSYGDSSWALDAWGQGTTVVVSAASTKGPSVFPLAPSSKSTSGGTAALGCLVKDYFPEPVTVSWNSGALTSGVHTFPAVLQSSGLYSLSSVVTVPSSSLGTQTYICNVNHKPSNTKVDKKVEPKSCDKTHTCPPCPAPELLGGPSVFLFPPKPKDTLMISRTPEVTCVVVDVSHEDPEVKFNWYVDGVEVHNAKTKPREEQYNSTYRVVSVLTVLHQDWLNGKEYKCKVSNKALPAPIEKTISKAKGQPREPQVCTLPPSRDELTKNQVSLSCAVKGFYPSDIAVEWESNGQPENNYKTTPPVLDSDGSFFLVSKLTVDKSRWQQGNVFSCSVLHEALHSHYTQKSLSLSPG
light 2: YIHVTQSPSSLSVSIGDRVTINCQTSQGVGSDLHWYQHKPGRAPKLLIHHTSSVEDGVPSRFSGSGFHTSFNLTISDLQADDIATYYCQVLQFFGRGSRLHIKRTVAAPSVFIFPPSDEQLKSGTASVVCLLNNFYPREAKVQWKVDNALQSGNSQESVTEQDSKDSTYSLSSTLTLSKADYEKHKVYACEVTHQGLSSPVTKSFNRGEC
B3: Binding Protein 3 (protein)
light 1: ASELTQDPAVSVALKQTVTITCRGDSLRSHYASWYQKKPGQAPVLLFYGKNNRPSGIPDRFSGSASGNRASLTITGAQAEDEADYYCSSRDKSGSRLSVFGGGTKLTVLDKTHTDFVLTQSPHSLSVTPGESASISCKSSHSLIHGDRNNYLAWYVQKPGRSPQLLIYLASSRASGVPDRFSGSGSDKDFTLKISRVETEDVGTYYCMQGRESPWTFGQGTKVDIKDKTHTRTVAAPSVFIFPPSDEQLKSGTASVVCLLNNFYPREAKVQWKVDNALQSGNSQESVTEQDSKDSTYSLSSTLTLSKADYEKHKVYACEVTHQGLSSPVTKSFNRGEC
heavy 1: QVHLTQSGPEVRKPGTSVKVSCKAPGNTLKTYDLHWVRSVPGQGLQWMGWISHEGDKKVIVERFKAKVTIDWDRSTNTAYLQLSGLTSGDTAVYYCAKGSKHRLRDYALYDDDGALNWAVDVDYLSNLEFWGQGTAVTVSSDKTHTEVRLVESGGGLVKPGGSLRLSCSASGFDFDNAWMTWVRQPPGKGLEWVGRITGPGEGWSVDYAESVKGRFTISRDNTKNTLYLEMNNVRTEDTGYYFCARTGKYYDFWSGYPPGEEYFQDWGQGTLVIVSSDKTHTASTKGPSVFPLAPSSKSTSGGTAALGCLVKDYFPEPVTVSWNSGALTSGVHTFPAVLQSSGLYSLSSVVTVPSSSLGTQTYICNVNHKPSNTKVDKKVEPKSCDKTHTCPPCPAPELLGGPSVFLFPPKPKDTLMISRTPEVTCVVVDVSHEDPEVKFNWYVDGVEVHNAKTKPREEQYNSTYRVVSVLTVLHQDWLNGKEYKCKVSNKALPAPIEKTISKAKGQPREPQVYTLPPCRDELTKNQVSLWCLVKGFYPSDIAVEWESNGQPENNYKTTPPVLDSDGSFFLYSKLTVDKSRWQQGNVFSCSVLHEALHSHYTQKSLSLSPG
heavy 2: B2 heavy 2
light 2: B2 light 2
B4: V1/V2 directed Ab “b” (antibody, V domains shown)
VH: QVQLVESGGGVVQPGTSLRLSCAASQFRFDGYGMHWVRQAPGKGLEWVASISHDGIKKYHAEKVWGRFTISRDNSKNTLYLQMNSLRPEDTALYYCAKDLREDECEEWWSDYYDFGKQLPCAKSRGGLVGIADNWGQGTMVTVSS
VL: QSVLTQPPSVSAAPGQKVTISCSGNTSNIGNNFVSWYQQRPGRAPQLLIYETDKRPSGIPDRFSASKSGTSGTLAITGLQTGDEADYYCATWAASLSSARVFGTGTKVIVL
B5: MPER Ab (antibody, V domains shown)
VH: EVRLVESGGGLVKPGGSLRLSCSASGFDFDNAWMTWVRQPPGKGLEWVGRITGPGEGWSVDYAESVKGRFTISRDNTKNTLYLEMNNVRTEDTGYYFCARTGKYYDFWSGYPPGEEYFQDWGQGTLVIVSS
VL: ASELTQDPAVSVALKQTVTITCRGDSLRSHYASWYQKKPGQAPVLLFYGKNNRPSGIPDRFSGSASGNRASLTITGAQAEDEADYYCSSRDKSGSRLSVFGGGTKLTVL

Experiments:
[1] = biological target: 20 pseudotyped viruses representing 10 different HIV-1 clades; assay: cell-based or functional assay
[2] = biological target: panel of 208 different HIV-1 Env-pseudotyped viruses; assay: cell-based or functional assay
[3] = biological target: T1, MPER binding peptide (Acetyl-[…]-Ttds-Lys-(Biotin)-NH2) (HIV-1)
[4] = biological target: T1, MPER binding peptide …; assay: SPR (Biacore) with the MPER binding peptide
[5] = biological target: 20 pseudotyped viruses representing 10 different HIV-1 clades; assay: cell-based or functional assay; remark: listed apart in the source

Row | Binder | Geometric Mean (IC80) [1] | Median IC80 [1] | Geometric Mean (IC80) [2] | Median IC80 [2] | Ka [3] | Kd [3] | koff [3] | kon [3] | fold higher affinity than the MPER antibody [4] | Geometric Mean (IC80) [5] | Median IC80 [5]
1 | B1 | 0.094 mg/L | 0.06 mg/L | 0.063 mg/L | 0.037 mg/L | – | – | – | – | – | – | –
2 | B2 | 0.222 mg/L | 0.375 mg/L | 0.028 mg/L | 0.026 mg/L | 1.65e+08 M⁻¹ | 0.00605 µM | 0.000697 s⁻¹ | 115000 M⁻¹ s⁻¹ | 3.1 fold | – | –
3 | B3 | 0.287 mg/L | 0.469 mg/L | 0.051 mg/L | 0.045 mg/L | 6e+07 M⁻¹ | 0.0167 µM | 0.000779 s⁻¹ | 46700 M⁻¹ s⁻¹ | – | – | –
4 | B4 | – | – | – | – | – | – | – | – | – | 0.039 mg/L | 0.051 mg/L
5 | B5 | – | – | 1.34 mg/L | 1.69 mg/L | 5.35e+07 M⁻¹ | 0.0187 µM | 0.00109 s⁻¹ | 58500 M⁻¹ s⁻¹ | – | – | –
